Consider 26 molecules from patent publication US20240409645A1 (DUALYX, published 2024).

T1: human IL-2Rβ (human, UniProt P14784 27-240, limits assumed)
T1 construct: recombinant protein, coated or immobilised; also called hu IL-2R; IL-2R beta
T1 sequence: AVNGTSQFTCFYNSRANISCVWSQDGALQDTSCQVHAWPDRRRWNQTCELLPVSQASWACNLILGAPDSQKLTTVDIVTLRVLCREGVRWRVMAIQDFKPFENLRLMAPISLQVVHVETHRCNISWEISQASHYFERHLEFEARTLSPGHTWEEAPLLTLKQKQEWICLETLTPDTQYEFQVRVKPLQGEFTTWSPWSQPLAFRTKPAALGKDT

B1: FJ1427_P035MP02B03 (VHH)
VHH: QVQLVESGGGLVQTGGSLRLSCAASGSRFVSDFMGWYRQVPGKQRELVADMADGGSARYGDSVKGRFTILRDSGNSTAYLQMSSLKPEDTGVYYCKAGLWIAGRHFDYWGQGTQVTVSS
notes: soluble VHH in periplasmic extract; also called clone nr
B2: FJ1427_P035MP02C02 (VHH)
VHH: B1 VHH with T14P, S73N, G74M, Y79F
notes: as for B1
B3: FJ1427_P035MP02F06 (VHH)
VHH: B1 VHH with Q1E, V30I, D72E, S76A
notes: as for B1
B4: FJ1427 P035MP02H05 (VHH)
VHH: EVQLVESGGGSVQTGGSLRLSCVVSGSHFISDVMGWYRQVPGKQRELVADMADGGSAKYGDSVKGRFTILRDSVKNTVTLQMSSLNPEDTGVYYCKAGLWITGRHSDYWGQGTQVTVTS
notes: as for B1
B5: FJ1427_P035MP02B06 (VHH)
VHH: QVQLVESGGGLVQPGESLGLSCAASGFTFSNYAMSWVRQAPGKGLEWVSSITGAGRGTDYADSVKGRFTISRDNAKNTLYLQMNSLKPEDTAVYYCAKYSSGTYYPPTPVRGTDYRGQGTQVTVSS
notes: as for B1
B6: FJ1427_P035MP02G03 (VHH)
VHH: B5 VHH with E16G, S49A, A54F, I70V, G102S, V110A, T113R
notes: as for B1
B7: FJ1427_P035MP02C04 (VHH)
VHH: B5 VHH with E16G, G19E, A54F, A75D, K98R, G102S, V110A, T113R
notes: as for B1
B8: FJ1427_P035MP02E01 (VHH)
VHH: EVQLVESGGGLVQIGGSLRLSCAASGRTFSSITMAYFRQVPGKEREWVAGINFSGTRTFYADSVKGRFLISRDDAKSTMYLQMNSLKPEDTAVYYCAASPRGFYGPGNALYDYWGQGTQVTVSS
notes: as for B1
B9: FJ1427_P035MP02E05 (VHH)
VHH: B8 VHH with R45H
notes: as for B1
B10: FJ1427 P035MP02E02 (VHH)
VHH: EVQLVESGGGLVQTGGSLRLSCAASGSQFINDVMGWYRQVPGKQRELVADMDDTGSTKYADSVKGRFTILRDSVKNTAYLQMSNLKPEDTGVYYCKAGLWIKGRHSDYWGQGTQVTVSS
notes: as for B1
B11: FJ1427_P035MP02D06 (VHH)
VHH: B10 VHH
notes: soluble VHH in periplasmic extract; also called clone nr; 140
B12: FJ1427_P035MP02A05 (VHH)
VHH: B10 VHH
notes: as for B1
B13: FJ1427_P035MP02B01 (VHH)
VHH: B10 VHH with E1Q, S106F
notes: soluble VHH in periplasmic extract; also called clone nr; 98
B14: FJ1427_P035MP02G04 (VHH)
VHH: B10 VHH with E1Q, T14A, S106F
notes: as for B1
B15: FJ1427 P035MP02D01 (VHH)
VHH: B10 VHH with E1Q, V5Q
notes: soluble VHH in periplasmic extract; also called clone nr; 100
B16: FJ1427_P035MP02D04 (VHH)
VHH: QVQLVESGGGLVQTGGSLRLSCAVSGSRFISDVMGWYRQVPGKQRELVADMADGGSAKYADSVKGRFSILRDSVKNTVYLQMSSLKPEDTGIYYCKAGLWIAGRHSDYWGQGTQVTVSS
notes: as for B1
B17: FJ1427 P035MP02C05 (VHH)
VHH: B16 VHH
notes: as for B1
B18: FJ1427 P035MP02F04 (VHH)
VHH: B10 VHH with S106F
notes: as for B1
B19: FJ1427_P035MP02F01 (VHH)
VHH: B16 VHH with Q1E
notes: as for B1
B20: FJ1427 P035MP02A04 (VHH)
VHH: B10 VHH with A23T, K64N
notes: as for B1
B21: FJ1427 P035MP02G05 (VHH)
VHH: B10 VHH with M34T
notes: as for B1
B22: FJ1427_P035MP02F05 (VHH)
VHH: B16 VHH with Q1E
notes: as for B1
B23: FJ1427_P035MP02B05 (VHH)
VHH: B10 VHH with S106F
notes: soluble VHH in periplasmic extract; also called clone nr; 130
B24: FJ1427 P035MP02C03 (VHH)
VHH: B10 VHH with K58E, S106F
notes: soluble VHH in periplasmic extract; also called 14-MP02C03; clone nr
B25: FJ1427 P035MP02A07 (VHH)
VHH: QVQLVESGGGLVQAGGSLRLSCAVSGDVFVRYTMAWFRQAPGKEREFVATVTDSGRTTEYVDSVKGRFTVSRDNAKNTVYLQMNNLKPEDTAVYYCAANTDYFRIRSLDANTWGQGTQVTVSS
notes: as for B1
B26: FJ1427 P035MP02D08 (VHH)
VHH: B25 VHH with Q1E, A23V, A49T, T50S, V51I
notes: as for B1

Positions count from the first letter of the chain named.

The first assay deals with T1, human IL-2Rβ. Nature of the assay: SPR, P.E. off-rate. The procedure: SPR was performed to determine dissociation rates using Biacore 3000 instrument (GE Healthcare). Briefly, human and mouse IL-2R proteins were immobilized on carboxylmethyl dextran sensor chip (CM5) at approximately 2500 RUs using amine coupling in acetate buffer (GE Healthcare). The VHH-containing P.E. were loaded with a flow rate of 30 uL/min and the off-rates were measured over a 120s period.
B1 registered a koff of 0.000215 s⁻¹.
On the same count and under the same terms, with B2 the figure was 0.00057 s⁻¹; with B3, 0.000203 s⁻¹; with B4, 0.000268 s⁻¹.
Still for that read-out and setting: with B5 the figure was 0.0046 s⁻¹; with B6, 0.00293 s⁻¹.
The same measure, in the same setting: with B7 the figure was 0.00255 s⁻¹; with B8, 4.5e-05 s⁻¹; with B9, 0.00031 s⁻¹.
B10 gave a koff of 0.000269 s⁻¹.
On the same count and under the same terms, with B11 the figure was 0.000374 s⁻¹; with B12, 0.000444 s⁻¹; with B13, 0.000119 s⁻¹.
B14 registered a koff of 0.000295 s⁻¹.
On the same count and under the same terms, with B15 the figure was 0.000167 s⁻¹; with B16, 0.000358 s⁻¹; with B17, 0.000346 s⁻¹.
Same read-out and setting: with B18 the figure was 0.000343 s⁻¹; with B19, 0.0003 s⁻¹.
Same read-out and setting: with B20 the figure was 0.000368 s⁻¹.
B21: the koff is 0.000432 s⁻¹.
In the case of B22, the koff is 0.000334 s⁻¹. The koff values of the last two molecules are within 1.5-fold of each other.
Same read-out and setting: with B23 the figure was 0.000292 s⁻¹.
On the same count and under the same terms, with B24 the figure was 0.000714 s⁻¹; with B25, 0.00211 s⁻¹.
On the same count and under the same terms, with B26 the figure was 0.00236 s⁻¹.

In the next assay the target is T1, human IL-2Rβ. The assay is described as follows: P.E. ELISA, coated protein. The procedure: In a binding ELISA, human or mouse IL-2Rα, IL-2Rβ and IL-2Rγ proteins were coated directly on maxisorp microtiter plates overnight at 4° C. Free binding sites were blocked using 4% Marvel in PBS for 1 hour. Next, 1:5 dilution of P.E. in 1% Marvel/PBS were added to wells and incubated for 1 hour. […] Binding specificity was determined based on O.D. at 450 nm values compared to negative controls.
Consider B1, for which the “P.E. binding ELISA OD” value was 0.383 OD450 nm.
On the same count and under the same terms, with B2 the figure was 0.401 OD450 nm; with B3, 0.214 OD450 nm.
On the same count and under the same terms, with B4 the figure was 0.192 OD450 nm; with B5, 0.125 OD450 nm; with B6, 0.197 OD450 nm.
The same measure, in the same setting: with B7 the figure was 0.424 OD450 nm; with B8, 1.11 OD450 nm.
With B9, the “P.E. binding ELISA OD” value stood at 0.856 OD450 nm.
Turning to B10, the “P.E. binding ELISA OD” value is 0.254 OD450 nm.
As to B11, the “P.E. binding ELISA OD” value is 0.298 OD450 nm.
The same measure, in the same setting: with B12 the figure was 0.263 OD450 nm; with B13, 0.271 OD450 nm.
Take B14: the “P.E. binding ELISA OD” value turned out to be 0.549 OD450 nm.
The same measure, in the same setting: with B15 the figure was 0.573 OD450 nm.
Same read-out and setting: with B16 the figure was 0.447 OD450 nm; with B17, 0.237 OD450 nm.
On the same count and under the same terms, with B18 the figure was 0.516 OD450 nm; with B19, 0.469 OD450 nm; with B20, 0.533 OD450 nm.
Consider B21, for which the “P.E. binding ELISA OD” value was determined as 0.567 OD450 nm.
Still for that read-out and setting: with B22 the figure was 0.206 OD450 nm.
Still for that read-out and setting: with B23 the figure was 0.553 OD450 nm; with B24, 0.183 OD450 nm.
Same read-out and setting: with B25 the figure was 0.791 OD450 nm; with B26, 0.905 OD450 nm.

As a reminder, the koff is a measure of how fast the partners let go of each other. Low readings indicate a long-lived complex, high ones a short-lived complex.
